{
  "source": "patent US20230227790",
  "proteins": {"B1": {"name": "component A (compA) protein (I53-50A) fused to RSV antigen (protein)", "chain": "MEELFKKHKIVAVLRANSVEEAIEKAVAVFAGGVHLIEITFTVPDADTVIKALSVLKEKGAIIGAGTVTSVEQCRKAVESGAEFIVSPHLDEEISQFCKEKGVFYMPGVMTPTELVKAMKLGHTILKLFPGEVVGPQFVKAMKGPFPNVKFVPTGGVNLDNVCEWFKAGVLAVGVGSALVKGTPDEVREKAKAFVEKIRGCTE"}},
  "target": "component B (compB) protein (I53-50B)",
  "test": "SEC-HPLC after sub-surface pipette addition and orbital agitation overnight",
  "data": [
    {"protein": "B1", "values": [
      {"measurement": "VLP assembly peak (% by HPLC)", "result": "formation of the VLP assembly (50%)"}
    ]}
  ]
}
